The target of this experiment is T1, Activated protein C (Homo sapiens, UniProt P04070).
T1 chain 1: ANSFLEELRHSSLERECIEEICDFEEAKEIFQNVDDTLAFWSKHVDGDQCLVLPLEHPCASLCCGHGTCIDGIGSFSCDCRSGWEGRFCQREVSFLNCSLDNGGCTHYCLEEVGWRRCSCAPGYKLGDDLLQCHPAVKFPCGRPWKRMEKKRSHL
T1 chain 2: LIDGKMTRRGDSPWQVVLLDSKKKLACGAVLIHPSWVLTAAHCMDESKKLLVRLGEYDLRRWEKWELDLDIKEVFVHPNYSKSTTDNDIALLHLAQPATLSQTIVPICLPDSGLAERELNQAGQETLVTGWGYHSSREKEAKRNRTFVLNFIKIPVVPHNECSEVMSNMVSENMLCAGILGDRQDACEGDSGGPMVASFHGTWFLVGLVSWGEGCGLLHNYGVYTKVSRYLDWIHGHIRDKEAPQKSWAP
Description: flow cytometry. On the technique in general: In flow cytometry, cells or beads pass a laser one at a time.

B1: Endothelial protein C receptor (protein)
chain: SQDASDGLQRLHMLQISYFRDPYHVWYQGNASLGGHLTHVLEGPDTNTTIIQLQPLQEPESWARTQSGLQSYLLQFHGLVRLVHQERTLAFPLTIRCFLGCELPPEGSRAHVFFEVAVNGSSFVSFRPERALWQADTQVTSGVVTFTLQQLNAYNRTRYELREFLEDTCVQYVQKHISAENTKGSQTSRSYTS
modifications: fluorescently labelled APC
B1 showed a Kd of 77 nM. This counts as double-digit nanomolar.

One may read the Kd as the constant that tells how readily two partners part at equilibrium. The low end stands for higher affinity, the high end for lower affinity.

The record behind these values is paper PMC4115806 (2014).
